These results are taken from doi:10.1101/2022.10.06.511153 (bioRxiv, 2022).

The target in data set [1] is MksB (Corynebacterium glutamicum) (UniProt Q8NLY2). The experiment in a line: BLI. For orientation: Biolayer interferometry detects binding as a change in optical thickness at a sensor tip.
Data set [2] addresses MksE (Corynebacterium glutamicum) (UniProt Q8NLY1). The experiment in a line: BLI.
The data set “crystal structure” concerns the molecule itself. The data set is described as follows: crystal structure.

One may read the Kd as the concentration at which binding is half-saturated. A higher Kd goes with a looser complex. The stoichiometry N is the number of molecules, sites or subunits per partner or assembly.

In the case of “MksF (from UniProt Q8NLY0 1-495) (natural protein)”, the dissociation constant Kd in data set [1] is 4.94 µM; in data set [2] it was 2.17 µM.

B1: MksG (6xHis-SUMO construct for crystallization) (natural protein, Corynebacterium glutamicum)
chain: MPLFIDDALHRSKKYFHAHLSELLLGEFAGLSLPLHPPTAAKAAADIDATREFIRQWEGRDDVEYAIRNWSPVGLGKTEVPVRLTLNTTEELVVFAQVEDEWSSLHERFSQLSGFTAEVVAKHVSLWRSLSNDDLSKAVLVVDWFLKHPNSGLLKRAVAVEGVHTKWLENHRVLIETLVADKRGEPGRADLGLGDAEARVRLRFHSVDAPAGLTDIEVPLSNLCELQEPQVILMVENLDSFLALPTWPGVTIAWGAGYRAVDIVRGPYFSNGRLLYWGDLDLDGFKILDGVRSHVPHTESVLMNSETVSRWRYLGVADREFKAESFDNLHDFESDALDLLITDGELRIEQERIRLDVAVEEIEKVIRG
In the case of B1, the “stoichiometry N” value in “crystal structure” was determined as 2.
